Source: patent publication US20220372155A1 (LYVGEN BIOPHARMA, published 2022)
Positions count from the first letter of the chain named. Names and notes keep the numbering of the source.

B1: Ly610 (bispecific antibody, human IgG1, kappa)
heavy: EVQLQQSGPELVKPGASVKMSCKASGYTFTSYVMHWVKQKPGQGLEWIGYINPYNDGTECTDKFKGKATLTSDKSSSTAYMELSSLTSEDSAVYYCASIYYGYDGTYFGVWGAGTSVTVSSASTKGPSVFPLAPSSKSTSGGTAALGCLVKDYFPEPVTVSWNSGALTSGVHTFPAVLQSSGLYSLSSVVTVPSSSLGTQTYICNVNHKPSNTKVDKKVEPKSCDKTHTCPPCPAPELLGPSVFLFPPKPKDTLMISRTPEVTCVVVDVSHEDPEVKFNWYVDGVEVHNAKTKPREEQYNSTYRVVSVLTVLHQDWLNGKEYKCKVSNKALPAPIEKTISKAKGQPREPQVYTLPPSREEMTKNQVSLTCLVKGFYPSDIAVEWESNGQPENNYKTTPPVLDSDGSFFLYSKLTVDKSRWQQGNVFSCSVMHEALHNHYTQKSLSLSPGGGGGSGGGGSGGGGSGGGGSDIQMTQSPSSLSASVGDRVTITCKASQNIYIYLNWYQQKPGKAPKLLIYNTNNLQTGVPSRFSGSGSGTDFTLTISSLQPEDFATYYCLQHSSRRTFGGGTKVEIKGGGGSGGGGSGGGGSGGGGSQVQLVESGGGLVQPGGSLKLSCATSGFNFNDYFMNWVRQASGKGLEWVGQIRNKNYNYATYYTESLEGRVTISRDDSKNTAYLQMNSLKTEDTAVYYCTSYYYDGFADYFDYWGQGTTVTVSS
light: QIVLSQSPAILSTSPGEKVTMTCRASSSVSYMHWYQQKPGSSPKPWIYATSNLASGVPARFSGSRSGTSYSLTISRVEAEDAATYYCQQWSSNTLTFGGGTKLELKRTVAAPSVFIFPPSDEQLKSGTASVVCLLNNFYPREAKVQWKVDNALQSGNSQESVTEQDSKDSTYSLSSTLTLSKADYEKHKVYACEVTHQGLSSPVTKSFNRGEC
notes: Ly383 HC (IgG1 mutated Fc)-TM740 scFv VL-VH + Ly383 LC
B2: Ly611 (bispecific antibody, human IgG1, kappa)
heavy: EVQLQQSGPELVKPGASVKMSCKASGYTFTSYVMHWVKQKPGQGLEWIGYINPYNDGTECTDKFKGKATLTSDKSSSTAYMELSSLTSEDSAVYYCASIYYGYDGTYFGVWGAGTSVTVSSASTKGPSVFPLAPSSKSTSGGTAALGCLVKDYFPEPVTVSWNSGALTSGVHTFPAVLQSSGLYSLSSVVTVPSSSLGTQTYICNVNHKPSNTKVDKKVEPKSCDKTHTCPPCPAPELLGPSVFLFPPKPKDTLMISRTPEVTCVVVDVSHEDPEVKFNWYVDGVEVHNAKTKPREEQYNSTYRVVSVLTVLHQDWLNGKEYKCKVSNKALPAPIEKTISKAKGQPREPQVYTLPPSREEMTKNQVSLTCLVKGFYPSDIAVEWESNGQPENNYKTTPPVLDSDGSFFLYSKLTVDKSRWQQGNVFSCSVMHEALHNHYTQKSLSLSPGGGGGSGGGGSGGGGSGGGGSQVQLVESGGGLVQPGGSLKLSCATSGFNFNDYFMNWVRQASGKGLEWVGQIRNKNYNYATYYTESLEGRVTISRDDSKNTAYLQMNSLKTEDTAVYYCTSYYYDGFADYFDYWGQGTTVTVSSGGGGSGGGGSGGGGSGGGGSDIQMTQSPSSLSASVGDRVTITCKASQNIYIYLNWYQQKPGKAPKLLIYNTNNLQTGVPSRFSGSGSGTDFTLTISSLQPEDFATYYCLQHSSRRTFGGGTKVEIK
light: B1 light
notes: Ly383 HC (IgG1 mutated Fc)-TM740 scFv VH-VL + Ly383 LC
B3: Ly613 (bispecific antibody, human IgG1, kappa)
heavy: EVQLQQSGPELVKPGASVKMSCKASGYTFTSYVMHWVKQKPGQGLEWIGYINPYNDGTECTDKFKGKATLTSDKSSSTAYMELSSLTSEDSAVYYCASIYYGYDGTYFGVWGAGTSVTVSSASTKGPSVFPLAPSSKSTSGGTAALGCLVKDYFPEPVTVSWNSGALTSGVHTFPAVLQSSGLYSLSSVVTVPSSSLGTQTYICNVNHKPSNTKVDKKVEPKSCDKTHTCPPCPAPELLGPSVFLFPPKPKDTLMISRTPEVTCVVVDVSHEDPEVKFNWYVDGVEVHNAKTKPREEQYNSTYRVVSVLTVLHQDWLNGKEYKCKVSNKALPAPIEKTISKAKGQPREPQVYTLPPSREEMTKNQVSLTCLVKGFYPSDIAVEWESNGQPENNYKTTPPVLDSDGSFFLYSKLTVDKSRWQQGNVFSCSVMHEALHNHYTQKSLSLSPGGGGGSGGGGSGGGGSGGGGSEVQLVESGGGLVQPGGSLRLSCAASGFTFTNYGLHWVRQAPGKGLEWVSSISPSGGVTYYRDSVKGRFTISRDNSKNTLYLQMNSLRAEDTAVYYCAKPFLGWGGANWIAHWGQGTLVTVSSGGGGSGGGGSGGGGSGGGGSDIQMTQSPSSLSASVGDRVTITCLASEDISNDLAWYQQKPGKAPKLLIYFVDRLLDGVPSRFSGSGSGTDFTLTISSLQPEDFATYYCQQSYKYPPTFGQGTKLEIK
light: B1 light
notes: Ly383 HC (IgG1 mutated Fc)-TM559 scFv VH-VL + Ly383 LC
B4: Ly612 (bispecific antibody, human IgG1, kappa)
heavy: EVQLQQSGPELVKPGASVKMSCKASGYTFTSYVMHWVKQKPGQGLEWIGYINPYNDGTECTDKFKGKATLTSDKSSSTAYMELSSLTSEDSAVYYCASIYYGYDGTYFGVWGAGTSVTVSSASTKGPSVFPLAPSSKSTSGGTAALGCLVKDYFPEPVTVSWNSGALTSGVHTFPAVLQSSGLYSLSSVVTVPSSSLGTQTYICNVNHKPSNTKVDKKVEPKSCDKTHTCPPCPAPELLGPSVFLFPPKPKDTLMISRTPEVTCVVVDVSHEDPEVKFNWYVDGVEVHNAKTKPREEQYNSTYRVVSVLTVLHQDWLNGKEYKCKVSNKALPAPIEKTISKAKGQPREPQVYTLPPSREEMTKNQVSLTCLVKGFYPSDIAVEWESNGQPENNYKTTPPVLDSDGSFFLYSKLTVDKSRWQQGNVFSCSVMHEALHNHYTQKSLSLSPGGGGGSGGGGSGGGGSGGGGSDIQMTQSPSSLSASVGDRVTITCLASEDISNDLAWYQQKPGKAPKLLIYFVDRLLDGVPSRFSGSGSGTDFTLTISSLQPEDFATYYCQQSYKYPPTFGQGTKLEIKGGGGSGGGGSGGGGSGGGGSEVQLVESGGGLVQPGGSLRLSCAASGFTFTNYGLHWVRQAPGKGLEWVSSISPSGGVTYYRDSVKGRFTISRDNSKNTLYLQMNSLRAEDTAVYYCAKPFLGWGGANWIAHWGQGTLVTVSS
light: B1 light
notes: Ly383 HC (IgG1 mutated Fc)-TM559 scFv VL-VH + Ly383 LC
B5: Ly614 (bispecific antibody, human IgG1, kappa)
heavy: QVQLQQPGAELVKPGASVKLSCKASGYTFTSYWMHWVKQRPGQGLEWIGMIHPNSGGTNYNEKFKGKGTLTVDKSSSTAYMQLSSLTSDDSAVYYCVTSQATWFAYWGQGTLVTVSAASTKGPSVFPLAPSSKSTSGGTAALGCLVKDYFPEPVTVSWNSGALTSGVHTFPAVLQSSGLYSLSSVVTVPSSSLGTQTYICNVNHKPSNTKVDKKVEPKSCDKTHTCPPCPAPELLGPSVFLFPPKPKDTLMISRTPEVTCVVVDVSHEDPEVKFNWYVDGVEVHNAKTKPREEQYNSTYRVVSVLTVLHQDWLNGKEYKCKVSNKALPAPIEKTISKAKGQPREPQVYTLPPSREEMTKNQVSLTCLVKGFYPSDIAVEWESNGQPENNYKTTPPVLDSDGSFFLYSKLTVDKSRWQQGNVFSCSVMHEALHNHYTQKSLSLSPGGGGGSGGGGSGGGGSGGGGSDIQMTQSPSSLSASVGDRVTITCKASQNIYIYLNWYQQKPGKAPKLLIYNTNNLQTGVPSRFSGSGSGTDFTLTISSLQPEDFATYYCLQHSSRRTFGGGTKVEIKGGGGSGGGGSGGGGSGGGGSQVQLVESGGGLVQPGGSLKLSCATSGFNFNDYFMNWVRQASGKGLEWVGQIRNKNYNYATYYTESLEGRVTISRDDSKNTAYLQMNSLKTEDTAVYYCTSYYYDGFADYFDYWGQGTTVTVSS
light: ENVLTQSPAIMSVSPGEKVTMTCRASSSVSSSYLHWYQQKSGASPKFWIYSTSNLASGVPARFSGSGSGTSYSLTISSVEAEDAATYYCQHYSGYPLTFGAGTKLELRRTVAAPSVFIFPPSDEQLKSGTASVVCLLNNFYPREAKVQWKVDNALQSGNSQESVTEQDSKDSTYSLSSTLTLSKADYEKHKVYACEVTHQGLSSPVTKSFNRGEC
notes: Ly387 HC (IgG1 mutated Fc)-TM740 scFv VL-VH + Ly387 LC
B6: Ly615 (bispecific antibody, human IgG1, kappa)
heavy: QVQLQQPGAELVKPGASVKLSCKASGYTFTSYWMHWVKQRPGQGLEWIGMIHPNSGGTNYNEKFKGKGTLTVDKSSSTAYMQLSSLTSDDSAVYYCVTSQATWFAYWGQGTLVTVSAASTKGPSVFPLAPSSKSTSGGTAALGCLVKDYFPEPVTVSWNSGALTSGVHTFPAVLQSSGLYSLSSVVTVPSSSLGTQTYICNVNHKPSNTKVDKKVEPKSCDKTHTCPPCPAPELLGPSVFLFPPKPKDTLMISRTPEVTCVVVDVSHEDPEVKFNWYVDGVEVHNAKTKPREEQYNSTYRVVSVLTVLHQDWLNGKEYKCKVSNKALPAPIEKTISKAKGQPREPQVYTLPPSREEMTKNQVSLTCLVKGFYPSDIAVEWESNGQPENNYKTTPPVLDSDGSFFLYSKLTVDKSRWQQGNVFSCSVMHEALHNHYTQKSLSLSPGGGGGSGGGGSGGGGSGGGGSQVQLVESGGGLVQPGGSLKLSCATSGFNFNDYFMNWVRQASGKGLEWVGQIRNKNYNYATYYTESLEGRVTISRDDSKNTAYLQMNSLKTEDTAVYYCTSYYYDGFADYFDYWGQGTTVTVSSGGGGSGGGGSGGGGSGGGGSDIQMTQSPSSLSASVGDRVTITCKASQNIYIYLNWYQQKPGKAPKLLIYNTNNLQTGVPSRFSGSGSGTDFTLTISSLQPEDFATYYCLQHSSRRTFGGGTKVEIK
light: B5 light
notes: Ly387 HC (IgG1 mutated Fc)-TM740 scFv VH-VL + Ly387 LC
B7: Ly075 (antibody, human IgG1, kappa, V domains shown)
VH: QVQLVQSGAEVKKPGASVKVSCKASGYTFTDFWMSWVRQAPGQGLEWMGQIYPNTGTTHSNEKFKGRVTMTRDTSTSTVYMELSSLRSEDTAVYYCARSYHISTTPNWFAYWGQGTLVTVSS
VL: DIQMTQSPSSLSASVGDRVTITCKASQNVYKKLEWYQQKPGKVPKLLIYHTNILQTGVPSRFSGSGSGTDFTLTISSLQPEDVATYYCYQWNSGPTFGGGTKVEIKR
notes: humanized LYV5574, VH-1 and VL-1, human IgG1/kappa
B8: Ly076 (antibody, human IgG1, kappa, V domains shown)
VH: B7 VH
VL: B7 VL with L46V, F71Y
notes: humanized LYV5574, VH-1 and VL-2 (L42V, F71Y), human IgG1/kappa

The binders below were run against T1, Human CD40 ECD protein (mouse IgG2a Fc tag) (human, UniProt P25942 21-193) (assay: bridging ELISA, coated B7H3-His, soluble CD40-msFc).
T1 construct: extracellular domain; also called Human CD40-msFc; human recombinant CD40; not shown: mouse IgG2a Fc tag
T1 sequence (P25942 21-193): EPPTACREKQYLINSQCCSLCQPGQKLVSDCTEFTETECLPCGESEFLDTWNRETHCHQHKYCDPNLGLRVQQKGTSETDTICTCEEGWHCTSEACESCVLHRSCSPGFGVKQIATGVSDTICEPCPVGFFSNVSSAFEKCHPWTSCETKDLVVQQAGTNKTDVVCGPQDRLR
Procedure: Anti-B7H3/CD40 bi-specific antibodies were analyzed by ELISA for their simultaneous binding to recombinant human B7H3 and human CD40. Briefly, Human B7H3 CD protein (His-tag) was diluted and coated onto an ELISA plate with a volume of […] by incubation at 4° C. overnight. The next day, the plate was blocked with PBST-BSA buffer, then serially diluted samples of anti-B7H3/CD40 bi-specific antibodies were pipetted into appropriate wells at 50 μL/well, and the plate was incubated for 1 h followed by washing. Human CD40-msFc antibody was added into the plate at 50 μL/well. After 1-hour incubation at room temperature, […] anti-Mouse IgG (H+L) antibody was added into the plate at 100 μL/well. The plate was incubated for 1 hour at room temperature followed by washing. TMB substrate solution was added at 100 p L/well and the color development was stopped by adding 100 uUwell Stop Solution (2N H2SO4). Absorbance at 450 nm and 620 nm was read by Tecan F200 Pro plate reader. GraphPad 7.0, “[Agonist] vs. response—Variable slope (four parameters)” was used to plot the binding data and calculate binding EC50 values.

binding result | Binder
binds | B1
binds | B2
binds | B3
binds | B4
binds | B5
binds | B6

The binders below were run against T2, human CD40 expressed on CHO cells (human, UniProt P25942 21-277) (assay: FACS, CHO cells).
T2 construct: whole, on cells; also used for the reporter cells over-expressing human CD40; also called cellular CD40; CHO-CD40 cells
T2 sequence (P25942 21-277): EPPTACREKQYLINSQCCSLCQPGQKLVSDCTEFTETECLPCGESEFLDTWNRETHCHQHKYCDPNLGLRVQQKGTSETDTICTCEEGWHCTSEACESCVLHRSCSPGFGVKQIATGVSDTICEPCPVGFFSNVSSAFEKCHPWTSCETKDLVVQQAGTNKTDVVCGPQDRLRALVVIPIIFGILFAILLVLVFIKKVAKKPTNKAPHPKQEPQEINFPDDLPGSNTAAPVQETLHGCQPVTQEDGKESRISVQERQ

binding result | Binder
binds | B1
binds | B2
binds | B3
binds | B4
binds | B5
binds | B6

Each binder was assayed against T3, human PD-L1 expressed on CHO cells (human, UniProt Q9NZQ7 19-290) (assay: FACS, CHO cells).
T3 construct: whole, on cells; also used for human PD-L1 on Raji cells in the reporter assay; also called cell surface PD-L1; Raji-PD-L1 cells
T3 sequence (Q9NZQ7 19-290): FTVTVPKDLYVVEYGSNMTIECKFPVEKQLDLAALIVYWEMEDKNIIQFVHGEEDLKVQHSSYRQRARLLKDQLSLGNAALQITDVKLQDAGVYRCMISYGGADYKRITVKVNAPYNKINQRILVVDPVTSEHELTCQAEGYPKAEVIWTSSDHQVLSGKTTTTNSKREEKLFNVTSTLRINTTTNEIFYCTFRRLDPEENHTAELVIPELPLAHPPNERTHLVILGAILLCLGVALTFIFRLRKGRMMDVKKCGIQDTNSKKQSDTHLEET

binding result | Binder
binds | B7
binds | B8
